Starred links: 1 amine or outer side, 2 acyl side, 3 side chain; linkers in the order of their positions; H or OH if unused. Positions of bridges follow the written chain, without caps; N, C: chain ends. Non-standard residues stand in square brackets, D forms with d. Primed or numbered codes have the meaning given here. B5(15) = 2-amino-2-(pent-4-en-1-yl)hept-6-enoic acid (2,2-bis(4-pentenyl)glycine), stitching residue bearing two staples, C=CCCCC(CCCC=C)(N[*:1])C(=O)[*:2]; PyrS2″ = (S)-3-amino-1-((pent-4-en-1-yloxy)carbonyl)pyrrolidine-3-carboxylic acid (stapling residue), C=CCCCOC(=O)N1CC[C@@](N[*:1])(C(=O)[*:2])C1; B5(5) = 2,2-bis(4-pentenyl)glycine, 2-amino-2-(pent-4-en-1-yl)hept-6-enoic acid (stitching residue), C=CCCCC(CCCC=C)(N[*:1])C(=O)[*:2]; Bta = N[C@@H](Cc1csc2ccccc12)C(=O)O; αAllylPro = C=CC[C@@]1(C(=O)O)CCCN1; 3Thi = N[C@@H](Cc1ccsc1)C(=O)O; Cha = N[C@@H](CC1CCCCC1)C(=O)O; S8 = C=CCCCCCC[C@](C)(N)C(=O)O; hLeu = CC(C)CC[C@H](N)C(=O)O; PyrS2(4) = not defined here; hSer = N[C@@H](CCO)C(=O)O; Nle = CCCC[C@H](N)C(=O)O
Each binder was assayed against T1, B-cat-Halo (beta-catenin HaloTag NanoBRET construct expressed in HEK293 cells) (UniProt P35222 1-781, HaloTag NanoBRET 618 Ligand bound to the HaloTag) (assay: cell-based or functional assay).
T1 sequence (looked up): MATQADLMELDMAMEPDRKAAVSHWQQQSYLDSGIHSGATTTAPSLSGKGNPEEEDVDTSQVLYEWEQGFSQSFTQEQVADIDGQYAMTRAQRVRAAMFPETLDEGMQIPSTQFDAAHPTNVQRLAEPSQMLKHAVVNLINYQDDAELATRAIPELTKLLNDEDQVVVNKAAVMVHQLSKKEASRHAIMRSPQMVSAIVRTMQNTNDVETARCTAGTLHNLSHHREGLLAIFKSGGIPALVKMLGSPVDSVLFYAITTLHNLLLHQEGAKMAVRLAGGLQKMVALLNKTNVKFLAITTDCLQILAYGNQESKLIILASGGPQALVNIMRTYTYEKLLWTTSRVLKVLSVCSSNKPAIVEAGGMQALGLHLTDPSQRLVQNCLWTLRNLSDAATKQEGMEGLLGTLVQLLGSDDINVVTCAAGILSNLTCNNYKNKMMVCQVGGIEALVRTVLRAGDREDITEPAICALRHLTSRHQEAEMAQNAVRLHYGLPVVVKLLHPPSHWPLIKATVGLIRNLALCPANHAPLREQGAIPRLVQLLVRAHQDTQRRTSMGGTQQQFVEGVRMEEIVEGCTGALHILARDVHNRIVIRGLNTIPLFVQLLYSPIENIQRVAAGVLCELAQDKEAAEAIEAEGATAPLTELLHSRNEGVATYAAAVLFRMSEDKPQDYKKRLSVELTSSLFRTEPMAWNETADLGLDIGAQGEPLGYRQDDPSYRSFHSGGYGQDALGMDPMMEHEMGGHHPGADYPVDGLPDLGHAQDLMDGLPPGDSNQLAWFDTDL

Binder | NanoBRET Abs IC50
Ac-[αAllylPro]DN[B5(5)]DDAAFL[PyrS2″][3Thi][Bta][hSer]-NH2 (staple 1-4, 4-11) [I-1518: Ac-PL3-Asp-Asn-B5-Asp-Asp-Ala-Ala-Phe-Leu-PyrS2-3Thi-BztA-Hse-NH2] | 24.2 µM
Ac-[αAllylPro]D[Nle][B5(5)]DEAAFQ[S8]F[Bta]Q-NH2 (staple 1-4, 4-11; also: staple isomer, earlier eluting HPLC peak) [I-1521: Ac-PL3-Asp-nLeu-B5-Asp-Glu-Ala-Ala-Phe-Gln-S8-Phe-BztA-Gln-NH2] | 6 µM
Ac-[αAllylPro]DT[B5(5)]DDAAFL[PyrS2″][3Thi][Bta]Q-NH2 (staple 1-4, 4-11) [I-1515: Ac-PL3-Asp-Thr-B5-Asp-Asp-Ala-Ala-Phe-Leu-PyrS2-3Thi-BztA-Gln-NH2] | > 20 µM
Ac-[αAllylPro]DT[B5(5)]DDAAFL[PyrS2″][3Thi][Bta][hSer]-NH2 (staple 1-4, 4-11) [I-1516: Ac-PL3-Asp-Thr-B5-Asp-Asp-Ala-Ala-Phe-Leu-PyrS2-3Thi-BztA-Hse-NH2] | > 20 µM
Ac-[αAllylPro]D[Cha][B5(5)]DDAAFL[PyrS2(4)][3Thi][Bta][hSer]-NH2 (staple 1-4, 4-11; not fully specified; printed as I-1520: Ac-PL3-Asp-Cha-B5-Asp-Asp-Ala-Ala-Phe-Leu-PyrS2-3Thi-BztA-Hse-NH2; reading uncertain) [I-1520: Ac-PL3-Asp-Cha-B5-Asp-Asp-Ala-Ala-Phe-Leu-PyrS2-3Thi-BztA-Hse-NH2] | 17.4 µM
Ac-[αAllylPro]D[Nle][B5(5)]DEAAFL[S8]F[Bta]Q-NH2 (staple 1-4, 4-11) [I-1523: Ac-PL3-Asp-nLeu-B5-Asp-Glu-Ala-Ala-Phe-Leu-S8-Phe-BztA-Gln-NH2] | 8 µM
Ac-[αAllylPro]D[Cha][B5(5)]DDAAFL[PyrS2″][3Thi][Bta]Q-NH2 (staple 1-4, 4-11) [I-1519: Ac-PL3-Asp-Cha-B5-Asp-Asp-Ala-Ala-Phe-Leu-PyrS2-3Thi-BztA-Gln-NH2] | 12.8 µM
Ac-[αAllylPro]D[Nle][B5(5)]DEAAF[hSer][S8]F[Bta]Q-NH2 (staple 1-4, 4-11) [I-1525: Ac-PL3-Asp-nLeu-B5-Asp-Glu-Ala-Ala-Phe-Hse-S8-Phe-BztA-Gln-NH2] | 10.8 µM
Ac-[αAllylPro]D[Nle][B5(5)]DEAAF[hSer][S8]F[Bta]Q-NH2 (staple 1-4, 4-11; also: staple isomer, earlier eluting HPLC peak) [I-1524: Ac-PL3-Asp-nLeu-B5-Asp-Glu-Ala-Ala-Phe-Hse-S8-Phe-BztA-Gln-NH2] | 8.1 µM
Ac-[αAllylPro]DN[B5(5)]DDAAFL[PyrS2″][3Thi][Bta]Q-NH2 (staple 1-4, 4-11) [I-1517: Ac-PL3-Asp-Asn-B5-Asp-Asp-Ala-Ala-Phe-Leu-PyrS2-3Thi-BztA-Gln-NH2] | > 20 µM
Ac-[αAllylPro]D[Nle][B5(5)]DEAAFQ[S8]F[Bta]Q-NH2 (staple 1-4, 4-11) [I-1522: Ac-PL3-Asp-nLeu-B5-Asp-Glu-Ala-Ala-Phe-Gln-S8-Phe-BztA-Gln-NH2] | 5.8 µM

Each binder was assayed against T2, B-cat-Halo (beta-catenin HaloTag NanoBRET construct expressed in HEK293 cells) (UniProt P35222 1-781) (assay: cell-based or functional assay).
T2 sequence (looked up): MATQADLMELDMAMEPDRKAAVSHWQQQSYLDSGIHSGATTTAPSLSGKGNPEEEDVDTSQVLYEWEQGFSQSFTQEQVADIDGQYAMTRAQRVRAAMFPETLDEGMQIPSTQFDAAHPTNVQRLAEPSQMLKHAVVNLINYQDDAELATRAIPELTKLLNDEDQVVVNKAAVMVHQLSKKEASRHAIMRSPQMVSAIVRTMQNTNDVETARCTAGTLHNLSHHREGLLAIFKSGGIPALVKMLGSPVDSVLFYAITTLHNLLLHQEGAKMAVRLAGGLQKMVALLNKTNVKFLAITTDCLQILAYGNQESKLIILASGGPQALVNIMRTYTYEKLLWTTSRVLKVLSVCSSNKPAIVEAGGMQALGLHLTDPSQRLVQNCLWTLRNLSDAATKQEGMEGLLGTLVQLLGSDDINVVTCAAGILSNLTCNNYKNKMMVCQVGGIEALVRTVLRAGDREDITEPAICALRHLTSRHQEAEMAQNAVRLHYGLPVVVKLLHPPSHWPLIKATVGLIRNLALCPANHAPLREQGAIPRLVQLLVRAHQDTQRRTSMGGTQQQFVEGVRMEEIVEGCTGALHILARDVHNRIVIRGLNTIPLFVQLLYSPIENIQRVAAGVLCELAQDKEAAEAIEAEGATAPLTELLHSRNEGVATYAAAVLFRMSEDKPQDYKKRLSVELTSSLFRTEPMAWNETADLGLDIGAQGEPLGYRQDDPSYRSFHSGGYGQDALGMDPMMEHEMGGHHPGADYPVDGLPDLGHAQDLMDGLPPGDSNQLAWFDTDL

Binder | NanoBRET Abs IC50
Ac-[αAllylPro]DQ[B5(15)]DEAAF[hSer][S8]F[Bta]Q-NH2 (staple 1-4, 4-11; not fully specified; printed as Ac-PL3-Asp-Gln-B5-Asp-Glu-Ala-Ala-Phe-Hse-S8-Phe-BztA-Gln-NH2) [I-1543] | > 20 µM
Ac-[αAllylPro]D[hLeu][B5(15)]DEAAF[hSer][S8]F[Bta]Q-NH2 (staple 1-4, 4-11; not fully specified; printed as Ac-PL3-Asp-Hleu-B5-Asp-Glu-Ala-Ala-Phe-Hse-S8-Phe-BztA-Gln-NH2) [I-1538] | 11.8 µM
Ac-[αAllylPro]D[hLeu][B5(15)]DEAAFL[S8]F[Bta]Q-NH2 (staple 1-4, 4-11) [I-1536] | 18.4 µM

From patent US20240116985A1 (published 2024)
